From patent US6835807B1, “Drug complex and drug delivery system” (Daiichi Pharmaceuticals Co., Ltd., priority 1998, dated 2004)
Marks after values point to notes of the source that are not given here.

Assays:
[1] = Release of the drug compound from the drug complex in Meth A homogenate (Example 8); assay type: in vitro ADME, murine; conditions: for released amount of the drug (DX-8951), percentage of the drug in the drug complex used: 37° C., 50 μg/ml, after 20 hours
Description: (§1) (50 μg/ml). […] The released amount of the drug is expressed in percentage of the released amount of the drug to the amount of the drug in the drug complex used.

[2] = system: Meth A tumor-bearing mice; assay: Maximum tolerated dose of the drug complexes of Examples 5, 6 and 7 (Example 9); assay type: in vivo, BALB/c mice; conditions: for BWLmax, maximum body-weight reduction rate / N, mice died/mice used / day when the maximum body-weight reduction was observed: single administration on the 13th day
Description: Meth A cells were transplanted into BALB/c mice to prepare Meth A tumor-bearing mice. On the 13th day, the drug complexes obtained in Examples 5, 6 and 7 were singly administered. After the administration, measurement of the body weight and observation of toxic death were made with time, and the maximum body-weight reduction rate and mortality were calculated, which are shown in Table 5. The dose is expressed in terms of the weight of anhydrous free base of DX-8951.
On the basis of the dose in which body weight reduction and death were observed, MTD of each complex were judged as follows.

[3] = Release of the drug compound from the drug complex in buffer (Example 8); assay type: physicochemical; conditions: for released amount of the drug (DX-8951), percentage of the drug in the drug complex used: 37° C., 50 μg/ml, after 20 hours
Description: as §1

[4] = Release of the drug compound from the drug complex in plasma (Example 8); assay type: in vitro ADME; conditions: 37° C., 50 μg/ml, after 20 hours
Description: as §1

Meth A cells = assay: Antineoplastic activity of the complexes of Examples 1, 5 and 6 (Example 10); assay type: in vivo, BALB/c mice; conditions: for IR, diminution rate of the tumor: 21th day; for Average tumor weight: tumor weighed on the 21th day
Description: Meth A cells were transplanted into BALB/c mice to prepare Meth A tumor-bearing mice. On the 7th day after the transplantation, the drug complexes shown in Examples 1, 5 and 6 were singly administered, respectively. The weight of the tumor was measured on the 21th day to evaluate the inhibitory activity on the tumor and the toxicity. In the table, * represents significance in Dunnet's test (*** p<0.001, ** P<0.01, * P<0.05), the dose is expressed in terms of the weight of anhydrous free base of DX-8951, and IR represents the diminution rate of the tumor.

[5] = 0.15625 mg/kg, singly administered on the 7th day
[6] = 0.3125 mg/kg, singly administered on the 7th day
[7] = 0.625 mg/kg, singly administered on the 7th day
[8] = 1.25 mg/kg, singly administered on the 7th day
[9] = 1.875 mg/kg, singly administered on the 7th day

For “Carboxymethyldextran polyalcohol-Gly-Gly-Phe-Gly-NH-p-C 6H4—CH2—O—CO-DX-8951 [Example 5]”, which “released amount of the drug (DX-8951), percentage of the drug in the drug complex used” value ([1]; Meth A homogenate (pH 4.5)) is on record?
Its value is 110.69%.

And the “released amount of the drug (DX-8951), percentage of the drug in the drug complex used” value ([1]; Meth A homogenate (pH 5.5))?
The value was 110.31%.

And the “released amount of the drug (DX-8951), percentage of the drug in the drug complex used” value ([1]; Meth A homogenate (pH 6.5))?
Its value is 42.71%.

And the “release of the drug in words” value ([1]; weakly acidic homogenate)?
The value was “rapidly released”.

And the “BWLmax, maximum body-weight reduction rate” value ([2]; 0.625 mg/kg)?
The value was 2.0%.

What about the “N, mice died/mice used” value ([2]; 0.625 mg/kg) of the same substance?
The value was 0/3.

What about the “day when the maximum body-weight reduction was observed” value ([2]; 0.625 mg/kg) of the same substance?
The value was 14 days.

What about the “BWLmax, maximum body-weight reduction rate” value ([2]; 1.25 mg/kg) of the same substance?
Its value is 5.0%.

And the “N, mice died/mice used” value ([2]; 1.25 mg/kg)?
Its value is 0/3.

And the “day when the maximum body-weight reduction was observed” value ([2]; 1.25 mg/kg)?
Its value is 18 days.

And the “BWLmax, maximum body-weight reduction rate” value ([2]; 5 mg/kg)?
The value was 28.6%.

And the “N, mice died/mice used” value ([2]; 5 mg/kg)?
The value was 3/3.

What about the “day when the maximum body-weight reduction was observed” value ([2]; 5 mg/kg) of the same substance?
Its value is 18 days.

What about the “BWLmax, maximum body-weight reduction rate” value ([2]; 10 mg/kg) of the same substance?
Its value is 27.1%.

What about the “N, mice died/mice used” value ([2]; 10 mg/kg) of the same substance?
The value was 3/3.

And the “day when the maximum body-weight reduction was observed” value ([2]; 10 mg/kg)?
The value was 18 days.

What about the “MTD relative to MTD of the drug complex obtained in Example 1” value ([2]; Meth A tumor-bearing mice) of the same substance?
Its value is “about ⅓”.

And the “N, mice died/mice used” value ([2]; […])?
Its value is 3/3.

What about the “released amount of the drug (DX-8951), percentage of the drug in the drug complex used” value ([3]; Buffer (pH 4.5)) of the same substance?
Its value is 0.79%.

What about the “released amount of the drug (DX-8951), percentage of the drug in the drug complex used” value ([3]; Buffer (pH 5.5)) of the same substance?
The value was 0.71%.

And the “released amount of the drug (DX-8951), percentage of the drug in the drug complex used” value ([3]; Buffer (pH 6.5))?
Its value is 0.8%.

What about the “release of the drug in words” value ([3]; buffer) of the same substance?
The value was “hardly released”.

What about the “released amount of the drug (DX-8951), percentage of the drug in the drug complex used” value [4] of the same substance?
Its value is 0.13%.

What about the “BWLmax, maximum body-weight reduction rate” value (Meth A cells; [5]) of the same substance?
Its value is under 0%.

And the “N, mice died/mice used” value (Meth A cells; [5])?
Its value is 0/6.

What about the “IR, diminution rate of the tumor” value (Meth A cells; [5]) of the same substance?
The value was 9%.

What about the Average tumor weight (Meth A cells; [5]) of the same substance?
Its Average tumor weight is 2.394 ± 0.231 g.

What about the “BWLmax, maximum body-weight reduction rate” value (Meth A cells; [6]) of the same substance?
The value was under 0%.

And the “N, mice died/mice used” value (Meth A cells; [6])?
The value was 0/6.

And the “IR, diminution rate of the tumor” value (Meth A cells; [6])?
The value was 57%.

And the Average tumor weight (Meth A cells; [6])?
Its Average tumor weight is 1.128 ± 0.173*** g.

And the “BWLmax, maximum body-weight reduction rate” value (Meth A cells; [7])?
The value was under 0%.

What about the “N, mice died/mice used” value (Meth A cells; [7]) of the same substance?
The value was 0/6.

What about the “IR, diminution rate of the tumor” value (Meth A cells; [7]) of the same substance?
Its value is 88%.

And the Average tumor weight (Meth A cells; [7])?
Its Average tumor weight is 0.328 ± 0.164*** g.

And the “BWLmax, maximum body-weight reduction rate” value (Meth A cells; [8])?
Its value is under 0%.

What about the “N, mice died/mice used” value (Meth A cells; [8]) of the same substance?
Its value is 0/6.

What about the “IR, diminution rate of the tumor” value (Meth A cells; [8]) of the same substance?
The value was 100%.

And the Average tumor weight (Meth A cells; [8])?
The Average tumor weight was 0.010 ± 0.004*** g.

And the “BWLmax, maximum body-weight reduction rate” value (Meth A cells; [9])?
Its value is 12.3%.

And the “N, mice died/mice used” value (Meth A cells; [9])?
Its value is 0/6.

What about the “day when the maximum body-weight reduction was observed” value (Meth A cells; [9]) of the same substance?
Its value is 13 days.

And the “IR, diminution rate of the tumor” value (Meth A cells; [9])?
The value was 100%.

And the Average tumor weight (Meth A cells; [9])?
Its Average tumor weight is 0.011 ± 0.003*** g.

And the “minimal effective dose relative to that of the drug complex shown in Example 1” value (Meth A cells; Meth A tumor-bearing mice)?
The value was “about ⅓”.
